# PMC9675814, “DNA mechanical flexibility controls DNA potential to activate cGAS-mediated immune surveillance”
# Assays:
# hcGAS WT [1] = biological target: T1, hcGAS WT (Homo sapiens, UniProt Q8N884 1-522); experiment: MST; details: EMSA: 50 nM Cy3-DNA, 20 mM Tris-HCl pH 7.5, 150 mM NaCl, 37 C 30 min, 1.5% agarose, MST: 50 nM Cy5-DNA, same buffer, room temperature, MARTFQ: 50 nM cGAS
# hcGAS WT [2] = biological target: T1, hcGAS WT; experiment: MARTFQ fluorescence quenching; EMSA: 50 nM Cy3-DNA, 20 mM Tris-HCl pH 7.5, 150 mM NaCl, 37 C 30 min, 1.5% agarose; MST: 50 nM Cy5-DNA, same buffer, room temperature; MARTFQ: 50 nM cGAS, DNA titration, 5 min; details: protein: recombinant, tags: His (pET-28a, Ni purified)
# hcGAS WT [3] = biological target: T1, hcGAS WT; experiment: EMSA; EMSA: 50 nM Cy3-DNA, 20 mM Tris-HCl pH 7.5, 150 mM NaCl, 37 C 30 min, 1.5% agarose; MST: 50 nM Cy5-DNA, same buffer, room temperature; MARTFQ: 50 nM cGAS, DNA titration, 5 min; details: protein: recombinant, tags: His (pET-28a, Ni purified), label: 5' Cy3 on F (EMSA)
# [4] = blunt, self-complementary strands
# T1 sequence (Q8N884 whole entry): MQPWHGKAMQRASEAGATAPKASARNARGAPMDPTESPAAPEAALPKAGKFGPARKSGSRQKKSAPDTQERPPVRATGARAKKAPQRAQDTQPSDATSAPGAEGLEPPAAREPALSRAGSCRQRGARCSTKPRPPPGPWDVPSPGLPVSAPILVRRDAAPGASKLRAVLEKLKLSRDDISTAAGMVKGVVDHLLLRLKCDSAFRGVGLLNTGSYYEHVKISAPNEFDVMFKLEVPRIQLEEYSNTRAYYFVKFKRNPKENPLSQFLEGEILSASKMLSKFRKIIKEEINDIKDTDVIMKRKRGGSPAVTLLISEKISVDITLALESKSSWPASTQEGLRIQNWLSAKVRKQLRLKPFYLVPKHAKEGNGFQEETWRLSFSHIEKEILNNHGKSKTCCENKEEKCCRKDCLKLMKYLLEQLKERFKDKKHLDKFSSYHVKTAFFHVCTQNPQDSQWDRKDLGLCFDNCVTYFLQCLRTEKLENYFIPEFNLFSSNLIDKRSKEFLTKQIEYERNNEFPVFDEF
molecule,measurement,setting,value
Gap ISD,Kd,hcGAS WT [1]; gap,75.8 nM
8-OdG ISD,Kd,hcGAS WT [1]; 8-oxo-dG,97.9 nM
Mis ISD,Kd,hcGAS WT [1]; mismatch,108 nM
Ctrl ISD,Kd,hcGAS WT [1],1270 nM
Nick ISD,Kd,hcGAS WT [1]; nick,150 nM
pA:pT 44 bp (dsDNA) DNA 1: AAAAAAAAAAAAAAAAAAAAAAAAAAAAAAAAAAAAAAAAAAAA DNA 2: TTTTTTTTTTTTTTTTTTTTTTTTTTTTTTTTTTTTTTTTTTTT,Kd,hcGAS WT [2]; blunt,3460 ± 637 nM
"Gap pA:pT 44 bp (dsDNA, 1 nt gap in dT strand) DNA 1: AAAAAAAAAAAAAAAAAAAAAAAAAAAAAAAAAAAAAAAAAAAA DNA 2: TTTTTTTTTTTTTTTTTTTTTT DNA 3: TTTTTTTTTTTTTTTTTTTTT",Kd,"hcGAS WT [2]; gapped duplex, three strands",190 ± 35.2 nM
"Gap E8A26 63 bp (dsDNA, 1 nt gap in R strand) DNA 1: TTTTATTTATCGCCTCCTTTTTTTTTTTTTTTTTTTTTTTTTTCCGTGTTATCTCGAGTTAGT DNA 2: ACTAACTCGAGATAACACGGAAA DNA 3: AAAAAAAAAAAAAAAAAAAAAAGGAGGCGATAAATAAAA",binding result,"hcGAS WT [3]; gapped duplex, three strands",binds
E8 63 bp (dsDNA) DNA 1: TTTTATTTATCGCCTCCACGGTGCTGCACGTACGCGCTGTTGGCCGTGTTATCTCGAGTTAGT DNA 2: ACTAACTCGAGATAACACGGCCAACAGCGCGTACGTGCAGCACCGTGGAGGCGATAAATAAAA,binding result,hcGAS WT [3]; blunt,binds
pAT 44 bp poly(dA:dT) (dsDNA) DNA 1: ATATATATATATATATATATATATATATATATATATATATATAT DNA 2: ATATATATATATATATATATATATATATATATATATATATATAT,Kd,hcGAS WT [2]; [4],640 ± 123 nM
pGC 44 bp poly(dG:dC) (dsDNA) DNA 1: CGCGCGCGCGCGCGCGCGCGCGCGCGCGCGCGCGCGCGCGCGCG DNA 2: CGCGCGCGCGCGCGCGCGCGCGCGCGCGCGCGCGCGCGCGCGCG,Kd,hcGAS WT [2]; [4],376 ± 78.8 nM
